{"source": "the domain aggregation screens of Martell et al. (2025)", "data": [{"assay": "soluble fraction after stress (log2 fold change); higher = more stays soluble; pooled small domains, quantitative proteomics", "settings": "stress: 75 degC", "values": [{"sequence": "HMDKQGGWLTMAEAAEKLGVTHHVIRRLIKEKILPAEQVMRHAPHQIRIVDLESDAVAEALRHR", "soluble fraction (log2)": -0.356}, {"sequence": "HMDKVVGSAGDVTSRITANSGEVKIDGQIWQARSYDETIAIEAGEKIEVFDLDGITLIVYPI", "soluble fraction (log2)": -0.833}, {"sequence": "HMDLAENWKDDADITLAEYNAIRSRYKPGKLHRDTEFMIARDMLIRPETVLAIAHSRFSNVHTHPV", "soluble fraction (log2)": -0.787}, {"sequence": "HMDLDEELDFLSDADESATKLDLARAYIDMGDKDGARDILAEVLEEGRSEQKREAQALLDSI", "soluble fraction (log2)": 0.249}, {"sequence": "HMDLDPVEKLHLLSQLYVGQLKGSFVVKEKNQKTTIIGEVRELSHQTLSIRTNEGYRLIEVADILEIRLWE", "soluble fraction (log2)": -0.216}, {"sequence": "HMDLDYSGIMNVLNQKYHITFYNNKKIQNLMPKLMIIMGYNSIINEIGHSKSLKALINSFEEKLKSYILT", "soluble fraction (log2)": -3.19}, {"sequence": "HMDLEGLSNKELVTLRGQIQDDLNKWATEVGIIDPKNRPDDYNRALQSLEDAKRQRSAIDAKL", "soluble fraction (log2)": 0.0844}, {"sequence": "HMDLEIENYDLREILNLFKLDYNFDNVDLKRAQKIALKTHPDKSNLPKEYFMFFMKAFQIVQQIYYYRY", "soluble fraction (log2)": -0.441}, {"sequence": "HMDLFREERRQAILDWLATAGRVSVAELSASFGVSEVTVRADLQALADRRLVVRTHGGAMMAG", "soluble fraction (log2)": -2.1}, {"sequence": "HMDLHSQVFESYERKIREVLREGPLTFEEILHAFALKRHETVAQVITYLMDEGKMSDSGDGKLIYSG", "soluble fraction (log2)": -0.86}, {"sequence": "HMDLIISDIRMPEMRGDDFLEWIKANELFKHIPVIMLSSEDSTTERIRLLEIGAEDYIVKPFNPMELKIR", "soluble fraction (log2)": -0.495}, {"sequence": "HMDLLIFSPSLGQHVRDLKRVIDRLHQHGIPVRWQKAKLLREEIEYIGWTWKSGGLIDPTNV", "soluble fraction (log2)": -0.672}, {"sequence": "HMDLMSTNEKLLYTMRYLISKSLDGAITEEEIRRLDRLIIENSQARAYYVEYLQIHTHLRKLMQQNPELK", "soluble fraction (log2)": -2.39}, {"sequence": "HMDLRIIKTKKAIKTAFLNLLKENKYHNITISAISETALINRKTFYAHYETKDELYADVIEDALRVLSP", "soluble fraction (log2)": 0.114}, {"sequence": "HMDLRIKEIMSERNVTSAWLAEKVGISKVAVSNIVTGKSSPSLDNLLKIADALNVSITTLIG", "soluble fraction (log2)": -2.6}, {"sequence": "HMDLRYKVQYNFIDQGMMTKDELLKFSLNQDDVSKIAVFDNDSKQWKEIYAITEISEKLGIS", "soluble fraction (log2)": -0.452}, {"sequence": "HMDLTIEQTTVLGKRLFSNALNSLGKKQRNIKKDAIESLLKRMNLKDMDQLYESIGIGDKSPLLMAQILL", "soluble fraction (log2)": -0.156}, {"sequence": "HMDLVIALNSRIRVIREPFFGKLGTVIDLPHKLHKMESGTMTRVAKIKFDDRTEEIIPRTNLEVILS", "soluble fraction (log2)": -3.54}, {"sequence": "HMDLYEILGVRRGAGGGEIRRAYRRLARRYHPDVNPGDREAQARYALITRAFETLNDPERRRAYDAGVP", "soluble fraction (log2)": -0.817}, {"sequence": "HMDMAENEEYKVIMGQAQQLAEQFFPADDNTRRIMLGQLKLENYSLYLLTKQILDEATKGQAAAAN", "soluble fraction (log2)": -0.264}, {"sequence": "HMDNFDVVLTSPGDQKVQVIKAVRSITGLGLKEAKDLVDGAPNTVKEGVKKLDAEEMLKQLTEAGATGEL", "soluble fraction (log2)": 0.35}, {"sequence": "HMDNFQFIGYSQQQGQIAVAWIKSLDNGRLVRVEVSDSLEGWRVSDISAQGVNLTKGQQWLMLKRL", "soluble fraction (log2)": -1.74}, {"sequence": "HMDNIGKTLGQNQTRQYKVAYAEAAKLPAIIMGLVPLPKPPVVDERLRSLYVTATPEQHRQIETLMNRI", "soluble fraction (log2)": -0.114}, {"sequence": "HMDNITIYSSNGKIYVNAIGGEKIELFNITGQKVAEKVAVSGINVLDAVYDITLVKVGSKVVKVV", "soluble fraction (log2)": -2.36}, {"sequence": "HMDNLATRILKELNNNDGFLPLSDKSQPEAIYQAFGISKKSYKTAIGTLYKKRLITISENGIQLTD", "soluble fraction (log2)": -0.67}, {"sequence": "HMDNLSQMQERILEFIIRSKDQSGYTPSLREIGDEVGLKAVSSVKYQLEQLKDAHYISFDANTARAIRVLI", "soluble fraction (log2)": -1.68}, {"sequence": "HMDNMFVEERQALIYEELQSNGRVRVKDLSKKFNVSEDLIRKDLNVLEKEGKLRKIYGGAVLAK", "soluble fraction (log2)": 0.237}, {"sequence": "HMDNNNQAAFMGALNSLKEYAKVNGNIVTKQDVESYFKDLGLDDSKYQMITGYLLANDITVKG", "soluble fraction (log2)": 0.181}, {"sequence": "HMDNQYGVYSDEKNNVEIHWKRIDHPSVAKDHLDIEAYQNGKRVDINNQQADHYRYLINQEMNE", "soluble fraction (log2)": 0.201}, {"sequence": "HMDPAFAQHHDRALSILHSRGYEVHDSDTDLHWARPVLEFEAYKGSLEYKIVMSYPDLNIIEERVD", "soluble fraction (log2)": -0.906}, {"sequence": "HMDPASYEARLSTLREQGAQQLDPVRFQYLATLAQRLPTQTPGVALILANKLRAGLSDYEQRLSEAGS", "soluble fraction (log2)": -0.0569}, {"sequence": "HMDPDAIVSKGQLGALNNAIGRFIAQGGSQTVVDKGIAKRNPNAKKPADLTNSQAESLEAAILKILNG", "soluble fraction (log2)": 0.73}, {"sequence": "HMDPLGALSDRERQVLALIGQGHGLQAIADQLGVSYKTAANTSSALKKKLGVDGINGLMKFALDSG", "soluble fraction (log2)": -0.443}, {"sequence": "HMDPLGGFTKGDVDMDGRVAVNDAVMVLKNAIKLMELDTQQLMLADADNDGKITVNDAVMILKKAIKLID", "soluble fraction (log2)": -0.149}, {"sequence": "HMDPTLFRLNILEGLGLEKKNLTSEEQEQLRFLYEHFSMKEILMTIDYIKKLNLEKSIVNLYRLMQHP", "soluble fraction (log2)": -0.823}, {"sequence": "HMDPTVEENKLNPRDLLIIQRVKEGRTNKEIAEELNVAEITVKKQLSSLYQRYKVHNRNQLLLALD", "soluble fraction (log2)": -0.285}, {"sequence": "HMDPVQLEVIKKLNLLNAQKPKDIYALRDVLSEMFPQSDIRLLLKELLDKGYIYWNGHEVIYSHEMF", "soluble fraction (log2)": -0.272}, {"sequence": "HMDPYEYQLELEKLINNATELNKKYNYDPLKDKILAADAVKNSLETYVLQNYIVALENEIKQTLNQYQIL", "soluble fraction (log2)": -0.685}, {"sequence": "HMDQNDYMLTRIRNGQMRNKVSVSMPASKIKSAIAAVLKDEGYIENFALNDSSGKPSLIVNLKYYAGQPV", "soluble fraction (log2)": -0.0681}, {"sequence": "HMDQPVIDVREFGARGDGKQDDAPAIQAAVRLAEQLGGGRVVVPATREFYLLGSTIRIRGHHVTLTGPGAR", "soluble fraction (log2)": 0.0456}, {"sequence": "HMDRAIAAHLEARVRDALKQLSPEQTRVIELFFFDNKTHAEIENDLKIPLGTVKSRLRLALNKLRASL", "soluble fraction (log2)": -2.55}, {"sequence": "HMDRASGEEEALKEAEDAISRVWEFDGPVELNPQNSYLRRLQHELASRYNVKSVSIGQEPNRRVVYYK", "soluble fraction (log2)": -0.163}, {"sequence": "HMDRDPAEAGYDDGYLSGNTDGMNNDERATYDESSQYPTPDERQSYAAAYRRGYAAGFADGRKQAV", "soluble fraction (log2)": -0.000174}, {"sequence": "HMDREIVEAIVPLEAAGKRFDAALAEMFPEFSRSRLTEWIKAGDALLAGEIVKPKVSVRGGEAVSLSIRV", "soluble fraction (log2)": -0.765}, {"sequence": "HMDRELVALVQKALSQLSEQQRRIVELHVMEGMKYLEIADLLQLSENTVRTHLKRAYKILRENH", "soluble fraction (log2)": -1.98}, {"sequence": "HMDRERFIKLGREIARAAFENVGKKATDKVLNSAAKKLRLEDGDEVLARLGSAEIEARSVVQAVYPDLI", "soluble fraction (log2)": 0.286}, {"sequence": "HMDRKARRKYIEQVVNDRKIETQEELLKLLTEAGFETTQATISRDIHALNIVKANDGDGHTHYVQLH", "soluble fraction (log2)": -0.0596}, {"sequence": "HMDRKEEIIIVTLKLASQIGLSNVSMEQIAKQVGIKKPSLYNHFKSKDEIIDAMYEYLREKSKN", "soluble fraction (log2)": -2.16}, {"sequence": "HMDRMIPPYGLEVTYDKTTHIIFPSAVRYVDLGSPNLIAGKADGSENVIRVKATRKNFREETNMSVITE", "soluble fraction (log2)": 0.152}, {"sequence": "HMDRPEPLYIVNGKEVQTLEEAFELGRTLGSAKKGTQVRLRRLLPEEGVEKYGEKGRNGVFEFMVSA", "soluble fraction (log2)": 0.269}, {"sequence": "HMDRPLRTKEHFARFAGEQVVVKTSSPIDGRSSFTGTLEGMEGDDVIVEVDGSRIAIGYSLIKRAHVVG", "soluble fraction (log2)": 0.00178}, {"sequence": "HMDRRFFVAEENYKRLDVFLSERMEEFTRSRIKKLIDEGHVELNGKSAKAGAEIRPGDEVAAEIPEVKE", "soluble fraction (log2)": 0.195}, {"sequence": "HMDRRIDIANAVKTALGSLPERQKTAIVLVHYEGFSGAETAKLLGISVEAVESLLARARRNLRQTLGP", "soluble fraction (log2)": -0.471}, {"sequence": "HMDRTIGEIGLVTETIDSTLESGRVMVDGLSWKARTSDNTVLEAGTRVQVKEIHGVTLTVEKA", "soluble fraction (log2)": 0.292}, {"sequence": "HMDRTLTYTVSIEESDLRADQFLSRRGFSSHLLTRLRKNMEHLLINGTPSRTNTHLHEGDILTVHIVEE", "soluble fraction (log2)": -2.19}, {"sequence": "HMDRWTPLIVAVLIEGSHRFGELRSAIGGITPKVLTETLRSMERDGLVTRDQVPGVPPRVDYALTPLG", "soluble fraction (log2)": -0.462}, {"sequence": "HMDRYVDEEKRFYWRSGEAYLNFSKYKDRSLAEVATVDPGFLRWMMEADFSPETKQIVERALEGEFPQKK", "soluble fraction (log2)": -0.29}, {"sequence": "HMDSADADLLRRIEDLLSSRRSVIREARLADMLGVPRDQVARALDLLQERGVIGLTTDSGMKRIAFRRN", "soluble fraction (log2)": -0.356}, {"sequence": "HMDSAQLARWAATILAQNGRKITPSTMNLFLERVGDDMENIRMELEKLISYTMGSEVVTAEDVKVITTVQ", "soluble fraction (log2)": -1.01}, {"sequence": "HMDSAVLQKHLVKLIELHAPIKARNLAKILADEFGKHVDRSAVNSALYSLKAERKVEVNSSYEWSLD", "soluble fraction (log2)": -2.25}, {"sequence": "HMDSDRAARLSSLTPQQFRVLRMVSEGQLNKQIAYQLNISEATVKSHVSAILQKLGVNSRTQAVILATRLD", "soluble fraction (log2)": -3.37}, {"sequence": "HMDSEQLSGLVNMGFSVYQAKTALEMFDNDIERAANYL", "soluble fraction (log2)": -0.478}, {"sequence": "HMDSERTALLSSDRTSFTAREAALLIGVSQRDIYRMIEDELLDSFTVGKMIRIRRSALEWWLS", "soluble fraction (log2)": -2.93}, {"sequence": "HMDSFEEGTYRKNQRGFGFVKIENQEDEIFISKENSLNALNGDRVIVEIIEDKDRTKRAEGKIKKILKHE", "soluble fraction (log2)": 0.531}, {"sequence": "HMDSGLLSAREREVAGLVLSGMTYAEIGEAIFISPRTAEHHIARIRRRLGATSRTDLIAKLQAIVGID", "soluble fraction (log2)": -3.41}, {"sequence": "HMDSGVPEWLASALRASPVAWKNFLALPPSHQRRYVGWISSARRDETRNRRIAEAISLLVEHKRLG", "soluble fraction (log2)": -2.18}, {"sequence": "HMDSIKDQIYQILKEDILTGELRSGEQLVEQTIAARFNTSRSPVREAIKQLTGDGLVINITNKGTFVK", "soluble fraction (log2)": 0.227}, {"sequence": "HMDSISEQIYSIIKEEILLAKRKPGEQINPRKLADEFETSVMPIRDALNQLANEGLVIRKPRVGFFVR", "soluble fraction (log2)": -0.501}, {"sequence": "HMDSITEADLLRWAHALSGIARTGLGFTESRYERERYEEVLAVAADILAASSRSHDRAALVDEWLKMVGV", "soluble fraction (log2)": -2.03}, {"sequence": "HMDSKKNLLGKNGLAFTTLRPAGTVLIDGQRHDVISNGDMIPKGATVRVIAIEGASITVEALPD", "soluble fraction (log2)": 0.0814}]}]}
